# Data reported in PMC5861054, “Crystal structure of an intramembranal phosphatase central to bacterial cell-wall peptidoglycan biosynthesis and lipid recycling” (Nature Communications, 2018).
# B1: Undecaprenyl pyrophosphate phosphatase (UppP) from Escherichia coli (enzyme, Escherichia coli K-12, UniProt P60932 1-273, looked up)
# chain: MSDMHSLLIAAILGVVEGLTEFLPVSSTGHMIIVGHLLGFEGDTAKTFEVVIQLGSILAVVVMFWRRLFGLIGIHFGRPLQHEGESKGRLTLIHILLGMIPAVVLGLLFHDTIKSLFNPINVMYALVVGGLLLIAAECLKPKEPRAPGLDDMTYRQAFMIGCFQCLALWPGFSRSGATISGGMLMGVSRYAASEFSFLLAVPMMMGATALDLYKSWGFLTSGDIPMFAVGFITAFVVALIAIKTFLQLIKRISFIPFAIYRFIVAAAVYVVFF
# notes: Undecaprenyl pyrophosphate phosphatase (UppP, BacA), Escherichia coli K-12 (ATCC 10798), full length, residues 1-273; Integral membrane protein, in DDM detergent (SEC, cross-linking) or monoolein lipid cubic/sponge phase (crystals); also called EcUppP; BacA; source: E. coli C41, solubilized from membranes in DDM, purified (Ni-NTA, thrombin cleavage, gel filtration); not shown: His6, N-terminal, …
# Molecular target: the molecule itself
# Experiment: cross-linking; purified UppP, room temperature 30 min, 50-fold molar excess DSS or EGS, quenched with 50 mM Tris, 12% SDS-PAGE
protein,measurement,value
B1,stoichiometry N,2
